Ends that are not written are not given here.
B1: Ab0370 (antibody, IgG4, V domains shown)
VH: QVTLKESGPVLVKPTETLTLTCTVSGFSLNNARVGVSWIRQPPGKALEWLAWIFSNDEKSYSTSLKSRLTISKDTSKSQVVLTMTNMDPVDTATYYCARSVVTGGYYYEGMDVWGQGTTVTVSS
VL: SYVLTQPPSVSVAPGQTARITCGGNNIGSESVHWYQQKPGQAPVLVVDDSDRPSGIPERFSGSNSGNTATLTISRVEAGDEADYYCQVHDGNSDHVVFGGGTKLTVLG
B2: P021 (peptide)
peptide: GHGEGTFTSDKSKQLEEEAVRLFIEWLKAGGPSSGAPPPS-NH2
B3: P019 (peptide)
peptide: GHGEGTFTSDLSIQLEEEAVRLFIEWLLAGGPSSGAPPPS-NH2
B4: P013 (peptide)
peptide: GHGEGTFTSDLSKQLEEEAVRLFIEWLKAGGPKKIRYS-NH2
B5: P010 (peptide)
peptide: HGEGTFTSDLSKQLEEEAVQLFIEWLLATGPSSGAPPPS-NH2
B6: P014 (peptide)
peptide: GHGEGTFTSDKSKQLEEEAVRLFIEWLKAGGPKKIRYS-NH2
B7: P017 (peptide)
peptide: GHGEGTFTSDLSKQLEEEAVRLFIEWLKAGGPSSGAPPPS-NH2
B8: P008 (peptide)
peptide: HGEGTFTSDLSKQLEEERVQLFIEWLKATGPSSGAPPPS-NH2
B9: P020 (peptide)
peptide: GHGEGTFTSDLSIQLEEEAVRLFIEWLLATGPSSGAPPPS-NH2

Assays:
Test in all cases: cell-based or functional assay
[1] = target: human FGFR1c + KLB receptor complex on HEK293 iLite FGF21 reporter cells (human) (UniProt P11362)
human FGFR1c + KLB receptor complex on HEK293 iLite FGF21 reporter cells (human), sequence (P11362 22-822, chain 1 of 2): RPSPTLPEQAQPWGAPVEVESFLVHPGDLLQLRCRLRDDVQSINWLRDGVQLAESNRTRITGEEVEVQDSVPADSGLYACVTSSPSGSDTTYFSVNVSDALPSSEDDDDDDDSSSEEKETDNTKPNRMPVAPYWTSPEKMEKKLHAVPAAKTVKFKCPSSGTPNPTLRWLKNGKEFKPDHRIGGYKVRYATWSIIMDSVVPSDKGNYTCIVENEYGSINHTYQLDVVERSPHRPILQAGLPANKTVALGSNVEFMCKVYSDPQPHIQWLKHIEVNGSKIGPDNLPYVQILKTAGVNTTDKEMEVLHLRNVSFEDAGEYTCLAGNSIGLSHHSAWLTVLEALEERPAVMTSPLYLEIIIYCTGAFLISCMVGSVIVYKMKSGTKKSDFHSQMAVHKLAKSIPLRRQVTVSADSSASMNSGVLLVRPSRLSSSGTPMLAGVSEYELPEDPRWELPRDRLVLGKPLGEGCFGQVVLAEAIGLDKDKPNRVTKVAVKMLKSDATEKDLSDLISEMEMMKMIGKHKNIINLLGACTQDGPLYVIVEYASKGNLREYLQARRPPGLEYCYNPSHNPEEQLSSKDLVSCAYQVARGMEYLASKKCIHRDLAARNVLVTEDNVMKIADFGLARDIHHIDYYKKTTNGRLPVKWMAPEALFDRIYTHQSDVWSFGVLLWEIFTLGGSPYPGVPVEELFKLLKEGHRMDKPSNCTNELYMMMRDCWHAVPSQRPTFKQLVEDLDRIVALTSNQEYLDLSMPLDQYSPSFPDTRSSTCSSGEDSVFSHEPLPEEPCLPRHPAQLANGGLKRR
human FGFR1c + KLB receptor complex on HEK293 iLite FGF21 reporter cells (human), sequence (Q86Z14 whole entry, chain 2 of 2, further chain): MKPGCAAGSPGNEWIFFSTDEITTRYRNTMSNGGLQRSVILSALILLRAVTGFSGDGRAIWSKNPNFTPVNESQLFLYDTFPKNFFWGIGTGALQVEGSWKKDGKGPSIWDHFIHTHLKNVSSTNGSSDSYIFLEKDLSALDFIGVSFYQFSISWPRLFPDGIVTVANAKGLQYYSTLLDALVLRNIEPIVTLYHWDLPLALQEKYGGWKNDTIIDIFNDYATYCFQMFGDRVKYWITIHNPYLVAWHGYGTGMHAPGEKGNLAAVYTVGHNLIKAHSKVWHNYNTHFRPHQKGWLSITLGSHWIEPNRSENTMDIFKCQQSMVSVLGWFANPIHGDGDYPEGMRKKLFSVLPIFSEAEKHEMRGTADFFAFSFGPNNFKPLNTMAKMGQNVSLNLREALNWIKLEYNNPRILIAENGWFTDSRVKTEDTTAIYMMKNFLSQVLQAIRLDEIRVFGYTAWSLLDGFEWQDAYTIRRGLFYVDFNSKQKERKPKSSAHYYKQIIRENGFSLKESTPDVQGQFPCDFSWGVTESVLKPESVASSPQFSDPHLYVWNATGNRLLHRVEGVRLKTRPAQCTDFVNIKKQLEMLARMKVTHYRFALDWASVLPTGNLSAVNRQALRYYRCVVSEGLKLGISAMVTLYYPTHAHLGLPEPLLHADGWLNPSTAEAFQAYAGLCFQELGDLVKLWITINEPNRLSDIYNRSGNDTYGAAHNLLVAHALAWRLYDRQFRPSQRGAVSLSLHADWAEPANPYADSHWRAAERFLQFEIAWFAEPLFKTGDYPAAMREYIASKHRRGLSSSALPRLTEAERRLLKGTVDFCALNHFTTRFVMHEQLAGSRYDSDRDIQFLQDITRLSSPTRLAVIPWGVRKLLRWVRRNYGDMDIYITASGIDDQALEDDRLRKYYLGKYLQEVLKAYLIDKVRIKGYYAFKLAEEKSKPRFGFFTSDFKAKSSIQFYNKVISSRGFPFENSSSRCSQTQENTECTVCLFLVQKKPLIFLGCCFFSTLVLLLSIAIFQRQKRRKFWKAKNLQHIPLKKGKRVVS

[2] = target: human GLP-1 receptor (human) (UniProt P43220)
human GLP-1 receptor (human), sequence (P43220 24-463): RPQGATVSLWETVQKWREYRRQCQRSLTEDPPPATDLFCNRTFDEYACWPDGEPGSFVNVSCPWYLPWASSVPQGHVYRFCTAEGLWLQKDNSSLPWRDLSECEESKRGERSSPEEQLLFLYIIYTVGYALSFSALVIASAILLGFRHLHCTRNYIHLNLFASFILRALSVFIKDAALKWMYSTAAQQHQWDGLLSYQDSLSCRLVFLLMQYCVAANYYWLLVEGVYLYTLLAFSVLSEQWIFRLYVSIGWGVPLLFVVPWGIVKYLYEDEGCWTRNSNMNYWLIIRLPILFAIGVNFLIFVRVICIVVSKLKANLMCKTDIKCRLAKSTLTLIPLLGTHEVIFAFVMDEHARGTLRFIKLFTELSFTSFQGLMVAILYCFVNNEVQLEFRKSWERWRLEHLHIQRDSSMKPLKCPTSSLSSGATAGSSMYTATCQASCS

[3] = target: human glucagon receptor (human) (UniProt P47871)
human glucagon receptor (human), sequence (P47871 26-477): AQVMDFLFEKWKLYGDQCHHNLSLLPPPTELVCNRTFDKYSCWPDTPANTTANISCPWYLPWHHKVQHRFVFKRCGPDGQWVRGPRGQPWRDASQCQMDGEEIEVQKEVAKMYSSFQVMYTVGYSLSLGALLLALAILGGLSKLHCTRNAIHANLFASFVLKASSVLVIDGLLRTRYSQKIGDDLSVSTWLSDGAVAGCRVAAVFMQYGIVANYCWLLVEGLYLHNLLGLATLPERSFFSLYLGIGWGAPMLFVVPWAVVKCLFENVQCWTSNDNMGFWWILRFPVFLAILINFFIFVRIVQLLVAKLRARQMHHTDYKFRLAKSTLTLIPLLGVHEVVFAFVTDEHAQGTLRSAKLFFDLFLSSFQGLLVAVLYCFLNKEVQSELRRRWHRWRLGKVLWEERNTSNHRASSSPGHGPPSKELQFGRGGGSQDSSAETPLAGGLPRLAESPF

[4] = target: human GIP receptor (human) (UniProt P48546)
human GIP receptor (human), sequence (P48546 22-466): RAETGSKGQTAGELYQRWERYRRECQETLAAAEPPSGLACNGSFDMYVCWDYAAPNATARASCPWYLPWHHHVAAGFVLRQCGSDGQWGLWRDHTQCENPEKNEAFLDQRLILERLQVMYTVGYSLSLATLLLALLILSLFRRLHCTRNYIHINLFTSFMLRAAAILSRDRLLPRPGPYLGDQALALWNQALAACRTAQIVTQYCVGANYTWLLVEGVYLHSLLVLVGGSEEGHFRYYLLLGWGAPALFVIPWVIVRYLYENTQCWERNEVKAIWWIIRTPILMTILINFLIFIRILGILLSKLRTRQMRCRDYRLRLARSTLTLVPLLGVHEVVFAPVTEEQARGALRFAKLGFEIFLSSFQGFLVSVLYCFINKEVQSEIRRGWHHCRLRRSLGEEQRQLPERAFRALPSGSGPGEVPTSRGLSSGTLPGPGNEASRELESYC

Binder	EC50 [1] [nmol/L]	Emax [1] [%]	HTRF cAMP EC50 [2] [pmol/L]	HTRF cAMP EC50 [3] [nM]	HTRF cAMP EC50 [4] [nM]
B1	> 100	490			
B2			27.6	> 10	> 10
B3			27.6		
B4			9.9	> 10	> 10
B5			3.5		
B6			10.5	5.4	> 10
B7			8.5	> 10	> 10
B8			23.2	> 10	> 10
B9			206		

From patent publication US20220010021A1
